Results on two molecules are retold here after patent US20200291104A1 (UCB, published 2020).

One may read the Kd as the concentration at which binding is half-saturated. What is called koff is a measure of how fast the partners let go of each other. A higher koff goes with fast dissociation. By kon is commonly meant the rate constant with which the complex forms. Lower therefore signals slower complex formation.

Assay [1] concerns the target cynomolgus TNF (cynomolgus) (UniProt P79337). In words: SPR (Biacore T200); Fab captured by anti-human F(ab')2, cynomolgus TNF injected at 3.125 nM. For orientation: SPR reads the build-up and loss of mass on a sensor chip optically.
For assay [2], the target named is T1, human TNF-alpha (human, UniProt P01375 77-233). The assay is described as follows: SPR (Biacore T200); Fab captured by anti-human F(ab')2, human TNF injected at 5 nM.
T1 sequence (P01375 77-233 limits assumed): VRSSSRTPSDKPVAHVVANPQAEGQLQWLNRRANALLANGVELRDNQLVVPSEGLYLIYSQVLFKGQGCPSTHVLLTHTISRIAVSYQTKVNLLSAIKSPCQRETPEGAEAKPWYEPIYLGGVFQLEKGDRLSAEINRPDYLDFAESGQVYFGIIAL
Assay [3] addresses T1, human TNF-alpha. The assay is described as follows: cell-based or functional assay.
Assay [4] has as its target T1, human TNF-alpha. The assay is described as follows: SPR (Biacore T200); IgG captured by anti-mouse IgG-Fc, human TNF injected at 20 nM.

Several values for one entry are separate records, joined by “and”; a condition that tells them apart may be missing. Equal entries are not always repeated.

B1: 2109 rat/human chimeric Fab (Fab, V domains shown)
VH: EVQLHQSGAALVKPGASVKLSCKTSGYTFTDNYIHWVKQSPGKSLEWIGYINPSSAYAHYNEKFKTKATLTVDKSTNTAYMELSRLTSEDSATYFCTRRYYSAMPFAYWGQGTLVTVSS
VL: DIVMTQSPASLSASLGETVTIECRASEDIYNGLAWYQQKPGKSPHLLIYNSNTLHTGVPSRFSGTGSGTQYSLKINSLQSEDVATYFCQQNYDFPLTFGSGTKLELKR
On to B1, for which, in assay [1], the Kd was 0.0274 nM and 0.027 nM; the koff turned out to be 0.000102 s⁻¹; the kon was determined as 3.71e+06 M⁻¹ s⁻¹. Besides, in the assay with human TNF-alpha [2], the Kd was 0.0349 nM and 0.035 nM; the koff was found to be 0.000143 s⁻¹; the kon came to 4.09e+06 M⁻¹ s⁻¹.

B2: CA2109 IgG (recombinant rat/mouse chimeric IgG1) (antibody, V domains shown)
VH: EVQLHQSGAALVKPGASVKLSCKTSGYTFTDNYIHWVKQSPGKSLEWIGYINPSSAYAHYNEKFKTKATLTVDKSTNTAYMELSRLTSEDSATYFCTRRYYSAMPFAYWGQGTLVTVSS
VL: DIVMTQSPASLSASLGETVTIECRASEDIYNGLAWYQQKPGKSPHLLIYNSNTLHTGVPSRFSGTGSGTQYSLKINSLQSEDVATYFCQQNYDFPLTFGSGTKLELK
Consider B2, for which the “EC50 (ng/ml), neutralisation in HEK-293-CD40-BLUE reporter assay” value with human TNF-alpha [3] is 0.31 ng/mL. Also, in the assay with human TNF-alpha [4], the Kd was 0.025 nM, the koff turned out to be 0.000119 s⁻¹ and the kon is 4.7e+06 M⁻¹ s⁻¹.
